T1: α-lactalbumin (Sigma Co.)
T1 sequence (P00711 20-142, species assumed, looked up): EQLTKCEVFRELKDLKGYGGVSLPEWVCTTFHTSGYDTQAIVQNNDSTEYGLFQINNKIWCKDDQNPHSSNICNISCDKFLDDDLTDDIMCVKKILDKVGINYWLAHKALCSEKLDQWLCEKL


What was measured:
[1] = biological target: casein (Wako Pure Chemical Industries, Ltd.)
[2] = biological target: β-lactoglobulin (Sigma Co.)
[3] = biological target: wheat gluten (Viten, ROQUETTE Co.)
[4] = biological target: separated soybean protein (Fuji Pro F, FUJI OIL CO., LTD.)
[5] = biological target: T1, α-lactalbumin (Sigma Co.)
[6] = biological target: casein (Wako Pure Chemical Industries, Ltd.); experiment: cell-based or functional assay
[7] = biological target: wheat gluten (Viten, ROQUETTE Co.); experiment: cell-based or functional assay
[8] = biological target: separated soybean protein (Fuji Pro F, FUJI OIL CO., LTD.); experiment: cell-based or functional assay

Ratio (Y82S/Wild-type) [6] | Ratio (Y82S/Wild-type) [7] | Ratio (Y82S/Wild-type) [8] | Binder | Relative activity (%) [1] [%] | Relative activity (%) [2] [%] | Relative activity (%) [3] [%] | Relative activity (%) [4] [%] | Relative activity (%) [5] [%] | Ratio (Y82S/Wild-type) [2] | Ratio (Y82S/Wild-type) [5]
 |  |  | mature form of wild-type protein-glutaminase derived from the Chryseobacterium proteolyticum 9670 strain (protein) LASVIPDVATLNSLFNQIKNQSCGTSTASSPCITFRYPVDGCYARAHKMRQILMNNGYDCEKQFVYGNLKASTGTCCVAWSYHVAILVSYKNASGVTEKRIIDPSLFSSGPVTDTAWRNACVNTSCGSASVSSYANTAGNVYYRSPSNSYLYDNNLINTNCVLTKFSLLSGCSPSPAPDVSSCGF | 1020 | 61 | 2620 | 127 | 100 |  | 
0.7 | 1.6 | 4.2 | mature form of the protein-glutaminase mutant Tyr82Ser (protein) LASVIPDVATLNSLFNQIKNQSCGTSTASSPCITFRYPVDGCYARAHKMRQILMNNGYDCEKQFVYGNLKASTGTCCVAWSSHVAILVSYKNASGVTEKRIIDPSLFSSGPVTDTAWRNACVNTSCGSASVSSYANTAGNVYYRSPSNSYLYDNNLINTNCVLTKFSLLSGCSPSPAPDVSSCGF | 701 | 309 | 4270 | 531 | 100 | 5 | 1
